The supplement of paper PMC7125110
± gives the standard error. Variants at the floor of the assay were thinned out.

B1: glmS ribozyme (parent)
chain: AUAAAAGCGCCAGAACUACAGAAAUGUAGUUGACGAGGAGGAGGUUUAUCGAAUUUUCGGCGGAUGCCUCCAAA

Assays:
Conditions in all cases: with glucosamine-6-phosphate
[1] = variants of: B1; assay: self-cleavage kobs at 640 uM GlcN6P; higher = faster cleavage; RNA array
Procedure, shortened: (§1)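 Barcoded ribozyme variants on sequenced MiSeq chips were transcribed in situ by E. coli RNA polymerase and followed at 37 °C through a hybridised Cy3 probe. Glucosamine-6-phosphate at 40 μM to 10 mM in HEPES/KCl/Mg(OAc)2 buffer was flowed in, and tiles were imaged over ~14 h. Signals were normalised to baseline and to non-cleaving reference variants, and per-tile medians were fit to one- or two-exponential decays to give kobs. Weighted Michaelis–Menten fits across concentrations gave kcat and KM.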

[2] = variants of: B1; assay: self-cleavage kobs at 2500 uM GlcN6P; higher = faster cleavage; RNA array
Procedure, shortened: as §1

[3] = variants of: B1; assay: self-cleavage kobs at 160 uM GlcN6P; higher = faster cleavage; RNA array
Procedure, shortened: as §1

[4] = variants of: B1; assay: self-cleavage kobs at 10000 uM GlcN6P; higher = faster cleavage; RNA array
Procedure, shortened: as §1

Variant: G7A G37U U46G U55C C58A
- self-cleavage kobs at 640 uM GlcN6P [1]: < 1e-05 s⁻¹

Variant: A6C G35U C71A
- self-cleavage kobs at 640 uM GlcN6P [1]: < 1e-05 s⁻¹
- self-cleavage kobs at 2500 uM GlcN6P [2]: < 1e-05 s⁻¹

Variant: U49A A52U U65A U69G
- self-cleavage kobs at 160 uM GlcN6P [3]: 7.53e-05 ± 2.4e-05 s⁻¹
- self-cleavage kobs at 640 uM GlcN6P [1]: 0.00031 ± 0.00012 s⁻¹

Variant: A6U G43U C70G
- self-cleavage kobs at 640 uM GlcN6P [1]: < 1e-05 s⁻¹

Variant: A53G A64U U69G
- self-cleavage kobs at 160 uM GlcN6P [3]: 0.000191 ± 6.9e-05 s⁻¹
- self-cleavage kobs at 640 uM GlcN6P [1]: 0.000772 ± 0.00022 s⁻¹
- self-cleavage kobs at 2500 uM GlcN6P [2]: 0.000517 ± 0.00019 s⁻¹

Variant: A6U G29C U56A
- self-cleavage kobs at 640 uM GlcN6P [1]: < 1e-05 s⁻¹

Variant: G7U C8G G38C
- self-cleavage kobs at 640 uM GlcN6P [1]: < 1e-05 s⁻¹

Variant: A6U A33G U69G
- self-cleavage kobs at 640 uM GlcN6P [1]: 9.46e-05 ± 3.6e-05 s⁻¹
- self-cleavage kobs at 2500 uM GlcN6P [2]: 0.000191 ± 6.5e-05 s⁻¹

Variant: A6G A48G C61G
- self-cleavage kobs at 640 uM GlcN6P [1]: < 1e-05 s⁻¹

Variant: A1U U2G A3G C70A
- self-cleavage kobs at 640 uM GlcN6P [1]: 0.000245 ± 0.00011 s⁻¹

Variant: A6U U49C U54A A64U C68U
- self-cleavage kobs at 640 uM GlcN6P [1]: < 1e-05 s⁻¹

Variant: A6C G13C G51U
- self-cleavage kobs at 640 uM GlcN6P [1]: < 1e-05 s⁻¹

Variant: U47A G66A
- self-cleavage kobs at 160 uM GlcN6P [3]: 0.00046 ± 0.00012 s⁻¹
- self-cleavage kobs at 640 uM GlcN6P [1]: 0.00249 ± 0.00067 s⁻¹
- self-cleavage kobs at 2500 uM GlcN6P [2]: 0.00842 ± 0.0039 s⁻¹

Variant: A6U A12U G13U U47A C70U
- self-cleavage kobs at 640 uM GlcN6P [1]: < 1e-05 s⁻¹

Variant: G7A A14G G29U C70G
- self-cleavage kobs at 640 uM GlcN6P [1]: < 1e-05 s⁻¹
- self-cleavage kobs at 2500 uM GlcN6P [2]: < 1e-05 s⁻¹

Variant: C8G A12U A36C
- self-cleavage kobs at 640 uM GlcN6P [1]: < 1e-05 s⁻¹

Variant: C8A A15G G44A C61U C71A
- self-cleavage kobs at 640 uM GlcN6P [1]: < 1e-05 s⁻¹
- self-cleavage kobs at 2500 uM GlcN6P [2]: < 1e-05 s⁻¹

Variant: G51C U65G
- self-cleavage kobs at 160 uM GlcN6P [3]: < 1e-05 s⁻¹
- self-cleavage kobs at 640 uM GlcN6P [1]: < 1e-05 s⁻¹
- self-cleavage kobs at 2500 uM GlcN6P [2]: < 1e-05 s⁻¹

Variant: A6G G41A G43C C50G C61U
- self-cleavage kobs at 640 uM GlcN6P [1]: < 1e-05 s⁻¹
- self-cleavage kobs at 2500 uM GlcN6P [2]: < 1e-05 s⁻¹

Variant: G7A U56G U69A
- self-cleavage kobs at 640 uM GlcN6P [1]: 0.00091 ± 0.00042 s⁻¹

Variant: G51C C67G
- self-cleavage kobs at 160 uM GlcN6P [3]: < 1e-05 s⁻¹
- self-cleavage kobs at 10000 uM GlcN6P [4]: < 1e-05 s⁻¹

Variant: C8A U31A G38C G40U C50G G60C C71A
- self-cleavage kobs at 640 uM GlcN6P [1]: < 1e-05 s⁻¹

Variant: G7C A36C U56A
- self-cleavage kobs at 640 uM GlcN6P [1]: < 1e-05 s⁻¹

Variant: C8A U69A
- self-cleavage kobs at 640 uM GlcN6P [1]: 0.00169 ± 0.00074 s⁻¹

Variant: G66U U69C
- self-cleavage kobs at 160 uM GlcN6P [3]: 0.000111 ± 2e-05 s⁻¹
- self-cleavage kobs at 640 uM GlcN6P [1]: 0.000207 ± 6.9e-05 s⁻¹
- self-cleavage kobs at 2500 uM GlcN6P [2]: 0.000653 ± 0.00016 s⁻¹

Variant: A52C U54C
- self-cleavage kobs at 160 uM GlcN6P [3]: < 1e-05 s⁻¹

Variant: A6G G51C A53U C67U
- self-cleavage kobs at 640 uM GlcN6P [1]: < 1e-05 s⁻¹

Variant: A6G U57A C68G
- self-cleavage kobs at 640 uM GlcN6P [1]: 7.18e-05 ± 2.3e-05 s⁻¹

Variant: C8A U31A C34U G60C
- self-cleavage kobs at 640 uM GlcN6P [1]: < 1e-05 s⁻¹

Variant: G7C G43U A53C G66U
- self-cleavage kobs at 640 uM GlcN6P [1]: < 1e-05 s⁻¹

Variant: G7A A39U A48C
- self-cleavage kobs at 640 uM GlcN6P [1]: < 1e-05 s⁻¹
- self-cleavage kobs at 2500 uM GlcN6P [2]: < 1e-05 s⁻¹

Variant: U45G G51U
- self-cleavage kobs at 160 uM GlcN6P [3]: < 1e-05 s⁻¹
- self-cleavage kobs at 640 uM GlcN6P [1]: < 1e-05 s⁻¹
- self-cleavage kobs at 10000 uM GlcN6P [4]: < 1e-05 s⁻¹

Variant: G7C C10A G13A A33C
- self-cleavage kobs at 640 uM GlcN6P [1]: < 1e-05 s⁻¹
- self-cleavage kobs at 2500 uM GlcN6P [2]: < 1e-05 s⁻¹
- self-cleavage kobs at 10000 uM GlcN6P [4]: < 1e-05 s⁻¹

Variant: G7U C10U A52U
- self-cleavage kobs at 640 uM GlcN6P [1]: < 1e-05 s⁻¹

Variant: G51U A53U
- self-cleavage kobs at 160 uM GlcN6P [3]: < 1e-05 s⁻¹
- self-cleavage kobs at 640 uM GlcN6P [1]: < 1e-05 s⁻¹
- self-cleavage kobs at 2500 uM GlcN6P [2]: < 1e-05 s⁻¹
- self-cleavage kobs at 10000 uM GlcN6P [4]: < 1e-05 s⁻¹

Variant: G7U G9A C58A C61A C67U
- self-cleavage kobs at 640 uM GlcN6P [1]: < 1e-05 s⁻¹
- self-cleavage kobs at 2500 uM GlcN6P [2]: < 1e-05 s⁻¹

Variant: A6C C16U G40C U47C G60U
- self-cleavage kobs at 640 uM GlcN6P [1]: < 1e-05 s⁻¹
- self-cleavage kobs at 2500 uM GlcN6P [2]: < 1e-05 s⁻¹

Variant: G7U G40C U49A
- self-cleavage kobs at 640 uM GlcN6P [1]: < 1e-05 s⁻¹

Variant: C8A G43C C61A
- self-cleavage kobs at 640 uM GlcN6P [1]: < 1e-05 s⁻¹

Variant: A6C C34A G41C C68A
- self-cleavage kobs at 640 uM GlcN6P [1]: < 1e-05 s⁻¹
- self-cleavage kobs at 2500 uM GlcN6P [2]: < 1e-05 s⁻¹

Variant: C8A G32C
- self-cleavage kobs at 640 uM GlcN6P [1]: < 1e-05 s⁻¹
- self-cleavage kobs at 2500 uM GlcN6P [2]: < 1e-05 s⁻¹
- self-cleavage kobs at 10000 uM GlcN6P [4]: < 1e-05 s⁻¹

Variant: G51C A53G
- self-cleavage kobs at 160 uM GlcN6P [3]: < 1e-05 s⁻¹
- self-cleavage kobs at 640 uM GlcN6P [1]: < 1e-05 s⁻¹
- self-cleavage kobs at 2500 uM GlcN6P [2]: < 1e-05 s⁻¹

Variant: C50U A52G C70A
- self-cleavage kobs at 160 uM GlcN6P [3]: 5.11e-05 ± 2.3e-05 s⁻¹
- self-cleavage kobs at 640 uM GlcN6P [1]: 0.000125 ± 3.7e-05 s⁻¹
- self-cleavage kobs at 2500 uM GlcN6P [2]: 6.9e-05 ± 2.3e-05 s⁻¹

Variant: G7U U31C C50G
- self-cleavage kobs at 640 uM GlcN6P [1]: 0.000324 ± 0.00016 s⁻¹

Variant: A6U G9A C50U
- self-cleavage kobs at 640 uM GlcN6P [1]: < 1e-05 s⁻¹

Variant: G7U G43U C67G
- self-cleavage kobs at 640 uM GlcN6P [1]: < 1e-05 s⁻¹

Variant: U47G C50U U56C A64U
- self-cleavage kobs at 160 uM GlcN6P [3]: < 1e-05 s⁻¹
- self-cleavage kobs at 640 uM GlcN6P [1]: < 1e-05 s⁻¹
- self-cleavage kobs at 2500 uM GlcN6P [2]: < 1e-05 s⁻¹
- self-cleavage kobs at 10000 uM GlcN6P [4]: < 1e-05 s⁻¹

Variant: G66C C68G
- self-cleavage kobs at 160 uM GlcN6P [3]: 0.000523 ± 0.00015 s⁻¹

Variant: C61G A64U U65A C68U
- self-cleavage kobs at 160 uM GlcN6P [3]: < 1e-05 s⁻¹
- self-cleavage kobs at 640 uM GlcN6P [1]: < 1e-05 s⁻¹

Variant: A6C C34G C61U
- self-cleavage kobs at 640 uM GlcN6P [1]: < 1e-05 s⁻¹
- self-cleavage kobs at 2500 uM GlcN6P [2]: < 1e-05 s⁻¹

Variant: G7A A15U A53G
- self-cleavage kobs at 640 uM GlcN6P [1]: < 1e-05 s⁻¹

Variant: U49G G51U
- self-cleavage kobs at 160 uM GlcN6P [3]: < 1e-05 s⁻¹
- self-cleavage kobs at 640 uM GlcN6P [1]: < 1e-05 s⁻¹
- self-cleavage kobs at 2500 uM GlcN6P [2]: < 1e-05 s⁻¹
- self-cleavage kobs at 10000 uM GlcN6P [4]: < 1e-05 s⁻¹

Variant: G7U A14G G40U
- self-cleavage kobs at 640 uM GlcN6P [1]: < 1e-05 s⁻¹
- self-cleavage kobs at 2500 uM GlcN6P [2]: < 1e-05 s⁻¹

Variant: G51C C58A
- self-cleavage kobs at 160 uM GlcN6P [3]: < 1e-05 s⁻¹
- self-cleavage kobs at 640 uM GlcN6P [1]: < 1e-05 s⁻¹
- self-cleavage kobs at 2500 uM GlcN6P [2]: < 1e-05 s⁻¹

Variant: A6G G7A C10U G44C G60C
- self-cleavage kobs at 640 uM GlcN6P [1]: < 1e-05 s⁻¹
- self-cleavage kobs at 2500 uM GlcN6P [2]: < 1e-05 s⁻¹

Variant: C8A G9A G13U
- self-cleavage kobs at 640 uM GlcN6P [1]: < 1e-05 s⁻¹

Variant: U46G U56G C70U
- self-cleavage kobs at 160 uM GlcN6P [3]: 0.000211 ± 5.3e-05 s⁻¹
- self-cleavage kobs at 640 uM GlcN6P [1]: 0.000436 ± 9.2e-05 s⁻¹
- self-cleavage kobs at 2500 uM GlcN6P [2]: 0.00119 ± 0.00031 s⁻¹

Variant: G7C U30G A64G
- self-cleavage kobs at 640 uM GlcN6P [1]: < 1e-05 s⁻¹

Variant: G7U A14U A52C C68A
- self-cleavage kobs at 640 uM GlcN6P [1]: 0.00249 ± 0.001 s⁻¹

Variant: A53C C58G G60A C67U
- self-cleavage kobs at 160 uM GlcN6P [3]: 0.000139 ± 3.1e-05 s⁻¹
- self-cleavage kobs at 2500 uM GlcN6P [2]: 8.04e-05 ± 2.5e-05 s⁻¹

Variant: G51C U54G
- self-cleavage kobs at 160 uM GlcN6P [3]: < 1e-05 s⁻¹
- self-cleavage kobs at 640 uM GlcN6P [1]: < 1e-05 s⁻¹

Variant: G7U C8U G40U G62C
- self-cleavage kobs at 640 uM GlcN6P [1]: < 1e-05 s⁻¹

Variant: C58G C68G C71U
- self-cleavage kobs at 160 uM GlcN6P [3]: 9.65e-05 ± 2.3e-05 s⁻¹
